Test results taken from patent US20260217779.

Tests used:
[1] = biological target: T1, hCXCL11.0037-G1T4k.one//VHn-G1T4h.one.H435R
T1 chain 1: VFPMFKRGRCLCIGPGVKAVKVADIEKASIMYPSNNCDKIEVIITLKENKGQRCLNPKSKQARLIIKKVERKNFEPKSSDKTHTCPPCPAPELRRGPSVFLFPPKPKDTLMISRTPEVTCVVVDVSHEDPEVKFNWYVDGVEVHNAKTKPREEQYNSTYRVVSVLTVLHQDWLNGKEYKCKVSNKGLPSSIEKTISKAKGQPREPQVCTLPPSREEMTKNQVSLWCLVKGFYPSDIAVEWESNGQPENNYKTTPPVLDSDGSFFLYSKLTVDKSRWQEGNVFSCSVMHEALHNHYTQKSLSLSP
T1 chain 2: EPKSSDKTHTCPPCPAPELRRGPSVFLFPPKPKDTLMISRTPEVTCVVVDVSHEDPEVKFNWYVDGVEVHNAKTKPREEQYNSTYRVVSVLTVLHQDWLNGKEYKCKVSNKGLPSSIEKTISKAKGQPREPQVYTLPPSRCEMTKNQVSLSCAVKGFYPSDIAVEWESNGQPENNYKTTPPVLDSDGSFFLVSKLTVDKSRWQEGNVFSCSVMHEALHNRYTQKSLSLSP

[2] = biological target: T2, hCXCL11.0039-G1T4k.one//VHn-G1T4h.one.H435R
T2 chain 1: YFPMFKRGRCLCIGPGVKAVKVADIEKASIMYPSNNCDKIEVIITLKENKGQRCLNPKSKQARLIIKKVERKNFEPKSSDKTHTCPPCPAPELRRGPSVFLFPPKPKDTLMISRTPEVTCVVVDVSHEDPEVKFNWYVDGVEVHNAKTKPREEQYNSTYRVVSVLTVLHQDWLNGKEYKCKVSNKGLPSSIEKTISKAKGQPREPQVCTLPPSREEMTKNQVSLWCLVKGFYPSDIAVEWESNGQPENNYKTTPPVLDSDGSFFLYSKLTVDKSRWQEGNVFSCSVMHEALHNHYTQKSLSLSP
T2 chain 2: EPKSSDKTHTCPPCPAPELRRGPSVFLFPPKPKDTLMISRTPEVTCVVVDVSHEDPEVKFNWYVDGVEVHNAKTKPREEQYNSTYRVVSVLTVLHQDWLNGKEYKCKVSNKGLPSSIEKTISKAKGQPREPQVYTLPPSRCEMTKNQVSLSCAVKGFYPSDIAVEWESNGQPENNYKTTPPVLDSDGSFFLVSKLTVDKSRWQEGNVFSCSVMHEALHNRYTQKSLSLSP

[3] = biological target: T3, hITIP0025-G1T4k.one//VHn-G1T4h.one.H435R
T3 chain 1: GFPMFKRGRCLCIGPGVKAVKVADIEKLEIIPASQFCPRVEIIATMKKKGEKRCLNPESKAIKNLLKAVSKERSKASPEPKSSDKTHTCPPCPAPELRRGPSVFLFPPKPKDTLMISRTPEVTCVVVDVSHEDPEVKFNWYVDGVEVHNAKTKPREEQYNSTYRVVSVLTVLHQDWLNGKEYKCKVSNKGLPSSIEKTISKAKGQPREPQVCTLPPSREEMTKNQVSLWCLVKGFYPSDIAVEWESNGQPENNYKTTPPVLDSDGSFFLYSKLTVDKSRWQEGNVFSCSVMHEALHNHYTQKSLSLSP
T3 chain 2: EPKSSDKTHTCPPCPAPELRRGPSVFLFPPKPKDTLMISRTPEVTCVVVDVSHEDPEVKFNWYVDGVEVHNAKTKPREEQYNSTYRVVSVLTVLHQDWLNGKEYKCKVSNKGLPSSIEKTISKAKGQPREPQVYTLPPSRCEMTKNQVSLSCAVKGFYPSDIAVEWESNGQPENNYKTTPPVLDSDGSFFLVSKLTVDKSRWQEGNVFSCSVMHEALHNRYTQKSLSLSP

[4] = biological target: T4, hCXCL11.0035-G1T4k.one//VHn-G1T4h.one.H435R
T4 chain 1: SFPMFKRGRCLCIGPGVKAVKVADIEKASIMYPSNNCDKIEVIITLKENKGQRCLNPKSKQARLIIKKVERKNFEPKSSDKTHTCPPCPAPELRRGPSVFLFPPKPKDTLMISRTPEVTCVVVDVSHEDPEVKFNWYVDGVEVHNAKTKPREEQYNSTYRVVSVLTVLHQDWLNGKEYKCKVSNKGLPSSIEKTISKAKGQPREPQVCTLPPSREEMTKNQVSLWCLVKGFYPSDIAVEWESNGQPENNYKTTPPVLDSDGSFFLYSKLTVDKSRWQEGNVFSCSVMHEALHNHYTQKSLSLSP
T4 chain 2: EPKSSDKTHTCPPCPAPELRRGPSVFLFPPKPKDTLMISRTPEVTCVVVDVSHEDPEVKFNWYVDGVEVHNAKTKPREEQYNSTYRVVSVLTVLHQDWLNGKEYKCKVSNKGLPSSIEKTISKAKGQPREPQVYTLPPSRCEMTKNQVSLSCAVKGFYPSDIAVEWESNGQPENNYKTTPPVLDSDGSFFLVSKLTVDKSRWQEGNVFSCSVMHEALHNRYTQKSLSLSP

[5] = biological target: T5, hCXCL11.0025-G1T4k.one//VHn-G1T4h.one.H435R
T5 chain 1: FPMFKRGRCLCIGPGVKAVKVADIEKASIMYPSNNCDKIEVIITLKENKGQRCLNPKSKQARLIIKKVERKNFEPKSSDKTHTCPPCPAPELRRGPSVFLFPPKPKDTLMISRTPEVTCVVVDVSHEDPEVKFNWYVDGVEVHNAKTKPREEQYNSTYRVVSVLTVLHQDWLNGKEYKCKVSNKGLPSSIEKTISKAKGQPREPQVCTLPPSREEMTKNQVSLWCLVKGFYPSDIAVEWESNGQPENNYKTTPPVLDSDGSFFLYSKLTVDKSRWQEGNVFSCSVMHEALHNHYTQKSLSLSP
T5 chain 2: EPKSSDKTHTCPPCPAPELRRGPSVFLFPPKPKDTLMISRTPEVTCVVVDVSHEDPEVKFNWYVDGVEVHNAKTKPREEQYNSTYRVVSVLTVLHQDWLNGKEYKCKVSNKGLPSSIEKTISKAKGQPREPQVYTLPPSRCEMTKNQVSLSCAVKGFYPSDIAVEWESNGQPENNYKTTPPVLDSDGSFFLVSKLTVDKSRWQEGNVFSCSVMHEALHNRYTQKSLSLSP

[6] = biological target: T6, hITIP0033-G1T4k.one//VHn-G1T4h.one.H435R
T6 chain 1: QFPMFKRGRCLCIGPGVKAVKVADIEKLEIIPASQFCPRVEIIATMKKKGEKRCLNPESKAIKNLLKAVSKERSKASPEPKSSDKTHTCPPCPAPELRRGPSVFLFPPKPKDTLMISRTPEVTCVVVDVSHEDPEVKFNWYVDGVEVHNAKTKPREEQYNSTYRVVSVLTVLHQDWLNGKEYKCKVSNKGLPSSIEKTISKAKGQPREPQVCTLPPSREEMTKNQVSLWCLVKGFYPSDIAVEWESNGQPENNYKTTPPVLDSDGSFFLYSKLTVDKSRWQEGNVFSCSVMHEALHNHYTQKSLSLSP
T6 chain 2: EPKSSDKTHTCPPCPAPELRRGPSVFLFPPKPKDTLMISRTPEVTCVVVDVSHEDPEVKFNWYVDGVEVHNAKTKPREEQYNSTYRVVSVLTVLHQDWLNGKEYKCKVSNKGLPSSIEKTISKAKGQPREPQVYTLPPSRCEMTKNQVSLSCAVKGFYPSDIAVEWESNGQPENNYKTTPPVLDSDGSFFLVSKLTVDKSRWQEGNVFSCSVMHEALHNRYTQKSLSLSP

[7] = biological target: T7, hCXCL11.0023-G1T4k.one//VHn-G1T4h.one.H435R
T7 chain 1: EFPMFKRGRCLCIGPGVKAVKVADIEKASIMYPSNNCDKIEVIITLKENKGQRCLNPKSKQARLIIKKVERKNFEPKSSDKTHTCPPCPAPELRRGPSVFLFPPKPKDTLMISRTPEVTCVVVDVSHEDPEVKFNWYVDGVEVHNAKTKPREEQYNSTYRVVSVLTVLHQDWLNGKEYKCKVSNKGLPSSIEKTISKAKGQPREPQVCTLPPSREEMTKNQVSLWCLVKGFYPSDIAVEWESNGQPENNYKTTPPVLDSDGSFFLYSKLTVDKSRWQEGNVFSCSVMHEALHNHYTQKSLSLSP
T7 chain 2: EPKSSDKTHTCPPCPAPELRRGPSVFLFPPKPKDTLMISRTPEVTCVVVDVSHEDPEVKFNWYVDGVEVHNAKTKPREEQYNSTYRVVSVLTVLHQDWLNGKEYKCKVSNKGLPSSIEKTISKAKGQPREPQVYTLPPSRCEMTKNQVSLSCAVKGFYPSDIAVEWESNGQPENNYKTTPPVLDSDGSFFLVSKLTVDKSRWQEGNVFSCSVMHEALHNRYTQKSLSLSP

[8] = biological target: T8, hCXCL11.0033-G1T4k.one//VHn-G1T4h.one.H435R
T8 chain 1: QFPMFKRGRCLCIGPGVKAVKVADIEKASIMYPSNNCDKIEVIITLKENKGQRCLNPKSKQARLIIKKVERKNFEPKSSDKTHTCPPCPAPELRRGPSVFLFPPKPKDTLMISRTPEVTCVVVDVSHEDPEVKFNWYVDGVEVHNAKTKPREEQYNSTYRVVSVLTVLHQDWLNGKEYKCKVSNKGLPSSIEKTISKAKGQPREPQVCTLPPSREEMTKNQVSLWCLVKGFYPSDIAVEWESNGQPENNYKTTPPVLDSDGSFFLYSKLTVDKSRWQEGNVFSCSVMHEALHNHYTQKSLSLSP
T8 chain 2: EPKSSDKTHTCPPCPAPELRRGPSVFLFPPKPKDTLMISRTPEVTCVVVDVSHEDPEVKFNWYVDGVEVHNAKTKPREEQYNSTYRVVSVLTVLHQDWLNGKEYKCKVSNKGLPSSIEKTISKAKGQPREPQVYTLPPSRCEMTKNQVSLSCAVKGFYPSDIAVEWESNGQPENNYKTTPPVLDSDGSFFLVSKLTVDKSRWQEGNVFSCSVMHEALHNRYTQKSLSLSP

B1: human dipeptidyl peptidase IV (human DPPIV, hDPPIV) (Biolegend, 764102) (protein)
chain: NKGTDDATADSRKTYTLTDYLKNTYRLKLYSLRWISDHEYLYKQENNILVFNAEYGNSSVFLENSTFDEFGHSINDYSISPDGQFILLEYNYVKQWRHSYTASYDIYDLNKRQLITEERIPNNTQWVTWSPVGHKLAYVWNNDIYVKIEPNLPSYRITWTGKEDIIYNGITDWVYEEEVFSAYSALWWSPNGTFLAYAQFNDTEVPLIEYSFYSDESLQYPKTVRVPYPKAGAVNPTVKFFVVNTDSLSSVTNATSIQITAPASMLIGDHYLCDVTWATQERISLQWLRRIQNYSVMDICDYDESSGRWNCLVARQHIEMSTTGWVGRFRPSEPHFTLDGNSFYKIISNEEGYRHICYFQIDKKDCTFITKGTWEVIGIEALTSDYLYYISNEYKGMPGGRNLYKIQLSDYTKVTCLSCELNPERCQYYSVSFSKEAKYYQLRCSGPGLPLYTLHSSVNDKGLRVLEDNSALDKMLQNVQMPSKKLDFIILNETKFWYQMILPPHFDKSKKYPLLLDVYAGPCSQKADTVFRLNWATYLASTENIIVASFDGRGSGYQGDKIMHAINRRLGTFEVEDQIEAARQFSKMGFVDNKRIAIWGWSYGGYVTSMVLGSGSGVFKCGIAVAPVSRWEYYDSVYTERYMGLPTPEDNLDHYRNSTVMSRAENFKQVEYLLIHGTADDNVHFQQSAQISKALVDVGVDFQAMWYTDEDHGIASSTAHQHIYTHMSHFIKQCFSLP
- cleavage by hDPPIV (LC/MS mass) [1]: showed no mass change suggestive of peptide bond cleavage by hDPPIV treatment
- cleavage by hDPPIV (LC/MS mass) [2]: showed no mass change suggestive of peptide bond cleavage by hDPPIV treatment
- cleavage by hDPPIV (LC/MS mass) [3]: showed no mass change suggestive of peptide bond cleavage by hDPPIV treatment
- cleavage by hDPPIV (LC/MS mass) [4]: showed no mass change suggestive of peptide bond cleavage by hDPPIV treatment
- cleavage by hDPPIV (LC/MS mass) [5]: showed no mass change suggestive of peptide bond cleavage by hDPPIV treatment
- cleavage by hDPPIV (LC/MS mass) [6]: showed no mass change suggestive of peptide bond cleavage by hDPPIV treatment
- cleavage by hDPPIV (LC/MS mass) [7]: showed no mass change suggestive of peptide bond cleavage by hDPPIV treatment
- cleavage by hDPPIV (LC/MS mass) [8]: showed no mass change suggestive of peptide bond cleavage by hDPPIV treatment
